Biological target: recombinant prefusion F protein of RSV (rpF5), ectodomain fused with a T4 fibritin foldon trimerization domain (respiratory syncytial virus, subgroup A2 | bacteriophage T4) (UniProt P03420)
Assay: SDS-PAGE under reducing and non-reducing conditions; 10% gel, Coomassie blue staining; band of approximately 195 kDa under non-reducing and approximately 65 kDa under reducing conditions

Substance: recombinant prefusion F protein of RSV (rpF5), ectodomain fused with a T4 fibritin foldon trimerization domain (from UniProt P03420 26-513) (domain or fragment)
- stoichiometry N: 3

Source: PMC12737591
